Source: US20250115671A1 (BEIGENE, published 2025)

Columns and labels:
huCCR8 D26A [1] = molecular target: T1, huCCR8 D26A (human, UniProt P51685 1-355); experiment: flow cytometry, transfected Expi293 cells, antibody at 50, 10 and 1 nM
T1 construct: Point mutant on transfected Expi293 cells
Description: (§1) To more precisely determine the specific amino acid residues that are crucial for antibody binding to human CCR8, point mutations were introduced to ECL2, ECL3 and N-terminal regions of human CCR8, as shown in the first column of Table 19. To evaluate the impact of each mutant, humanized anti-CCR8 antibody hu305-5W-3a was used to react with transfected Expi293 cells as described above with the concentration of 50 nM, 10 nM and 1 nM (results summarized in Table 19). The critical amino acids for hu305-5W-3a binding are marked with an “X” indicating a loss of >50% compared with wild type huCCR8, which is considered significant.

huCCR8 Y172A [2] = molecular target: T2, huCCR8 Y172A (human, UniProt P51685 1-355); experiment: as above
T2 construct: Point mutant on transfected Expi293 cells
Description: as §1

huCCR8 L269A [3] = molecular target: T3, huCCR8 L269A (human, UniProt P51685 1-355); experiment: as above
T3 construct: Point mutant on transfected Expi293 cells
Description: as §1

huCCR8 E177A [4] = molecular target: T4, huCCR8 E177A (human, UniProt P51685 1-355); experiment: as above
T4 construct: Point mutant on transfected Expi293 cells
Description: as §1

huCCR8 M266A [5] = molecular target: T5, huCCR8 M266A (human, UniProt P51685 1-355); experiment: as above
T5 construct: Point mutant on transfected Expi293 cells
Description: as §1

huCCR8 D178A [6] = molecular target: T6, huCCR8 D178A (human, UniProt P51685 1-355); experiment: as above
T6 construct: Point mutant on transfected Expi293 cells
Description: as §1

huCCR8 D26A [7] = molecular target: T1, huCCR8 D26A; experiment: flow cytometry, transfected Expi293 cells, serial dilution from 200 nM
Description: (§2) In comparison, the 10A11 reference antibody recognizes D14, Y17, D19 on the N-terminal domain of huCCR8 as the mutation on these sites totally abolished the binding, indicating no overlap in epitope between the reference antibody 10A11 and hu305-5W-3a. To further confirm the critical roles of these sites for binding, the transfected Expi293 cells were stained with a serial dilution of hu305-5W-3a from 200 nM followed by detection with Alexa Fluor 647 Rabbit Anti-Human IgG (Cat.: 309-605-008 Jackson ImmunoResearch) to obtain a full binding curve. […] D178 and M266 are considered as 2nd tier epitopes having media impact on Hu305-5W-3a binding. Substitution them with Ala will lead to ˜3 folds decrease of EC50.

huCCR8 Y172A [8] = molecular target: T2, huCCR8 Y172A; experiment: as above
Description: as §2

huCCR8 L269A [9] = molecular target: T3, huCCR8 L269A; experiment: as above
Description: as §2

huCCR8 E177A [10] = molecular target: T4, huCCR8 E177A; experiment: as above
Description: as §2

huCCR8 M266A [11] = molecular target: T5, huCCR8 M266A; experiment: as above
Description: as §2

huCCR8 D178A [12] = molecular target: T6, huCCR8 D178A; experiment: as above
Description: as §2

human CCR8 [13] = molecular target: T7, human CCR8 (human, UniProt P51685 1-355); experiment: as above
T7 construct: Full length; also called huCCR8; C-C motif chemokine receptor 8
Description: as §2

human CCR8 [14] = molecular target: T7, human CCR8; experiment: flow cytometry, 293T-huCCR8 cells
Excerpt: (§3) After washing twice with FACS buffer, cells were resuspended with FACS buffer and acquired on a Beckton Dickinson LSR Fortessa™. Titration curves were generated using sigmoid dose-response of nonlinear fit from GraphPad, and the EC50s of representative antibodies are shown in Table 2.

Cynomolgus Monkey CCR8 = molecular target: T8, Cynomolgus Monkey CCR8 (cynomolgus monkey, UniProt O97665 1-356 (rhesus entry)); experiment: flow cytometry, 293T-cynoCCR8 cells
T8 construct: also called cyno CCR8; cynoCCR8
Excerpt: as §3

mouse CCR8 = molecular target: T9, mouse CCR8 (mouse, UniProt P56484 1-353); experiment: flow cytometry on transfected Expi293 cells, serial dilution
T9 construct: Full length, transiently expressed on Expi293 cells; also called muCCR8; CCR8-mo8
T9 sequence: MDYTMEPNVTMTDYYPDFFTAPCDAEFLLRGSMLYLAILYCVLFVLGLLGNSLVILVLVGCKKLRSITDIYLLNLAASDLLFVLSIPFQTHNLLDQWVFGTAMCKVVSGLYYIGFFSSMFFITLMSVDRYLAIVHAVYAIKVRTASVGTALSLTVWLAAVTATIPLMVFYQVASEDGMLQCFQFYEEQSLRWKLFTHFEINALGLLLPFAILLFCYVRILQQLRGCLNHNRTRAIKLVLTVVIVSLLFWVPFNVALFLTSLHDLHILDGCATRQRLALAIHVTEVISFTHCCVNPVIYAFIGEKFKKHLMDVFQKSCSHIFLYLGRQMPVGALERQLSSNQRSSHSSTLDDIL
Description: The plasmids containing these chimeric CCR8 constructs, and human CCR8 (CCR8-hu8) and mouse CCR8 (CCR8-mo8) as control, were used to transfect Expi293™ cells for transient protein expression, after which cells were incubated with a serial dilution of the purified Ch305 as well as a reference antibody 10A11 from Shionogi (US 2022/0064312 A1). The binding of each construct was evaluated detection with Alexa Fluor 647 Rabbit Anti-Human IgG (Cat.: 309-605-008 Jackson ImmunoResearch). […] In addition, replacing the human CCR8 N-terminal region with mouse CCR8 N-terminal (CCR8_Ch1) also weakly impairs the affinity, which means human CCR8 N-terminal contributes to the binding activity of human CCR8 with Ch305. In the meanwhile, substituting mouse CCR8 N-terminal with human CCR8 N-terminal (CCR8_Ch5) rescues the binding activity of murine CCR8 with Ch305 to some extent much weaker than the binding activity of wild type human CCR8 to Ch305, which means human CCR8 N-terminal contributes but weakly or partly to the binding activity of human CCR8 with Ch305. […] In comparison, the reference antibody 10A11 binds to the N-terminal region of CCR8 only and it has no binding to ECL1, ECL2 and ECL3, that is, the epitope of 10A11 on human CCR8 locates only on N-terminal of human CCR8 (FIG. 9B).

human CCR8 [15] = molecular target: T7, human CCR8; experiment: cell-based or functional assay
human CCR8 [16] = molecular target: T7, human CCR8; experiment: flow cytometry, Jurkat-human CCR8 cells
Description: To evaluate the binding activity of anti-CCR8 antibodies to bind CCR8 expressed on living cells, Jurkat cells were engineered to over-express human CCR8. Jurkat-human CCR8 cells were seeded in 96-well plate and incubated with a series of dilutions of anti-CCR8 antibodies. Goat anti-human IgG was used as secondary antibody to detect antibody binding to the cell surface. EC50 values for dose-dependent binding to human CCR8 were determined by fitting the dose-response data to the four-parameter logistic model with GraphPad Prism. As shown in Table 4 and FIG. 3 the CCR8 antibodies had high binding affinity to human CCR8.

[17] = molecular target: T10, human CCR8 N-terminal domain-mouse Fc tag fusion protein (human (CCR8 part), mouse IgG2a Fc); experiment: ELISA, plate coated with human CCR8 N-terminal domain-Fc fusion
T10 construct: also called huCCR8-N-mIgG2a; human CCR8 N-terminal protein
T10 chain: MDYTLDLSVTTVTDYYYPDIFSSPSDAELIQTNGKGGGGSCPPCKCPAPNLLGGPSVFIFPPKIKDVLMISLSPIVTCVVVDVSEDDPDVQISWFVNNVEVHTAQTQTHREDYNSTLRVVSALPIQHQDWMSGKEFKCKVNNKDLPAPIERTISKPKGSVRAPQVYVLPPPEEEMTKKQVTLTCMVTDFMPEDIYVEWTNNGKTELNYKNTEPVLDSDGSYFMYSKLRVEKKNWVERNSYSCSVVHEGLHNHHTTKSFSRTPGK
Description: To determine whether anti-CCR8 antibodies bind to the N-terminal domain of human CCR8, ELISA plates were coated with human CCR8 N-terminal domain-mouse Fc tag fusion protein (SEQ ID NO: 28 and 29) overnight at 4° C. After washing and blocking, serially diluted anti-CCR8 antibodies were added to plates and incubated for 1 hour at room temperature. After washing, diluted HRP goat anti-human IgG Fc or HRP goat anti-mouse kappa chain (for 433H) secondary antibodies were added to plates and incubated for 45 minutes at room temperature. After washing, TMB substrate was added to plates for developing and then stopped by adding TMB substrate stop solution. The absorbance was read at 450 nm using a plate reader. […] It is a non CCR8 N-terminal loop binder.

T8 sequence (O97665 other isoform, or with tags, fused parts or gaps): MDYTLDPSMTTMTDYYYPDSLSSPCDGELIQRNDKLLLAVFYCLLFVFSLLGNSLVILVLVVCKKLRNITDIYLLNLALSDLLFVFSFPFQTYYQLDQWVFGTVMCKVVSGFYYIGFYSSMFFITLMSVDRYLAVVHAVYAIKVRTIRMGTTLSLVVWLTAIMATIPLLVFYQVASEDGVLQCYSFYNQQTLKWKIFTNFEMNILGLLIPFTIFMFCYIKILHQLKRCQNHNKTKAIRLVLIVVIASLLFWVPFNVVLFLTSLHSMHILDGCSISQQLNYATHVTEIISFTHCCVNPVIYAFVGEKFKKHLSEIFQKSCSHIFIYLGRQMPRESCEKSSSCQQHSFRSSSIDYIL

B1: hu305-5W-3a (antibody, V domains shown)
VH: QVQLKQSGPGLVKPSETLSLTCTVSGFSLAVYGVHWVRQPPGKGLEWLGVIWRGGTTDYNPSLKSRLTFSKDSSKSQVSLKLSSVTAADTAVYYCAKNRVTTVVAPNFYAMDYWGQGTLVTVSS
VL: DIVMTQSPDSLAVSLGERATINCKSSQSLLYSGNQKNYLAWYQQKPGQPPKLLIYWASTRKSGVPDRFSGSGSGTDFTLTISSLKAEDVAVYYCQQYYTYPLTFGQGTRLEIK
loss of binding compared with wild type huCCR8 (huCCR8 D26A [1]): > 50% | loss of binding compared with wild type huCCR8 (huCCR8 Y172A [2]): > 50% | loss of binding compared with wild type huCCR8 (huCCR8 L269A [3]): > 50% | loss of binding compared with wild type huCCR8 (huCCR8 E177A [4]): > 50% | loss of binding compared with wild type huCCR8 (huCCR8 M266A [5]): > 50% | loss of binding compared with wild type huCCR8 (huCCR8 D178A [6]): > 50% | EC50 (huCCR8 D26A [7]): 16.8 nM | fold change of EC50 against wild type huCCR8 (huCCR8 D26A [7]): > 2 fold | EC50 (huCCR8 Y172A [8]): 26.3 nM | fold change of EC50 against wild type huCCR8 (huCCR8 Y172A [8]): > 4 fold | EC50 (huCCR8 L269A [9]): 27.4 nM | fold change of EC50 against wild type huCCR8 (huCCR8 L269A [9]): > 4 fold | EC50 (huCCR8 E177A [10]): 25.4 nM | fold change of EC50 against wild type huCCR8 (huCCR8 E177A [10]): > 4 fold | EC50 (huCCR8 M266A [11]): 19.4 nM | fold change of EC50 against wild type huCCR8 (huCCR8 M266A [11]): ~3 fold | EC50 (huCCR8 D178A [12]): 18.3 nM | fold change of EC50 against wild type huCCR8 (huCCR8 D178A [12]): ~3 fold | EC50 (human CCR8 [13]): 6.3 nM

B2: Ch305 (antibody, V domains shown)
VH: QVQMKQSGPSLVQPSQSLSITCTVSGFSLTSYGVHWVRQSPGKGLEWLGVIWRGGTTDYNAAFMSRLSFTKDSSKSQVFFKLNSLQADDTAIYYCAKNRVTTVVAPNFYAMDYWGQGTSVTVSS
VL: DIVMTQSPSSLAVSVGEKVTMSCKSSQSLLYSGNQKNYLAWYQQKPGQSPKLLIYWASTRKSGVPDRLTGSGSGTDFTLTISSVKAEDLAAYYCQQYYTYPLTFGAGTRLEIK
EC50 (human CCR8 [14]): 3.67 nM | EC50 (Cynomolgus Monkey CCR8): 4.1 nM | binding result (mouse CCR8): no binding | IC50 (nM), ligand blocking activity (PathHunter beta-arrestin) (human CCR8 [15]): 5.9 nM | EC50 (human CCR8 [16]): 9.37 nM | EC50 [17]: 5.01 nM
